T1: APBA1_1, Q02410
T1 sequence (Q02410 651-752, limits assumed, looked up): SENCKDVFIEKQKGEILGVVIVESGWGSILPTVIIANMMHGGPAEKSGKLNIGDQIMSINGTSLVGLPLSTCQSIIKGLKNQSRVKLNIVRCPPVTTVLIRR

T2: SNTG2, Q9NY99
T2 sequence (Q9NY99 68-166, limits assumed, looked up): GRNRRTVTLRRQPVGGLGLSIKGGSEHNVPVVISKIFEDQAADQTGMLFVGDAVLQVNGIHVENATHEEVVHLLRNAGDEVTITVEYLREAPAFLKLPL

T3: GRIP1_2, Q9Y3R0
T3 sequence (Q9Y3R0 145-248, limits assumed, looked up): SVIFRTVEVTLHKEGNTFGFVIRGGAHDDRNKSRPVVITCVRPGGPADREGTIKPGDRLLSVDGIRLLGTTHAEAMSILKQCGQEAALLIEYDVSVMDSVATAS

T4: SNTB1, Q13884
T4 sequence (Q13884 107-205, limits assumed, looked up): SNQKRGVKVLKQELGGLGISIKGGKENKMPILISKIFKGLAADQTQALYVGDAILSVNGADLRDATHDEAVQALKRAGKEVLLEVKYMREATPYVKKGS

T5: APBA3_1, O96018
T5 sequence (O96018 389-490, limits assumed, looked up): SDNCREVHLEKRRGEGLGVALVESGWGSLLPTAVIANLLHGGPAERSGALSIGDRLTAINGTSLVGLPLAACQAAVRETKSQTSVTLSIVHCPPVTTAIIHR

T6: SHANK1, Q9Y566
T6 sequence (Q9Y566 658-767, limits assumed, looked up): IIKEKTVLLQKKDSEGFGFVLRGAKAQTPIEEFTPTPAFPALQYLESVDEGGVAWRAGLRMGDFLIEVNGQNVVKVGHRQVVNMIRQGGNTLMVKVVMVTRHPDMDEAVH

T7: NHERF3_1, Q5T2W1
T7 sequence (Q5T2W1 4-100, limits assumed, looked up): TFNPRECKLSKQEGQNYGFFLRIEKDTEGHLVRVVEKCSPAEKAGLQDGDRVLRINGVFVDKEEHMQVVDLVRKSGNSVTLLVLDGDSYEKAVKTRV

T8: MPDZ_5, O75970
T8 sequence (O75970 695-796, limits assumed, looked up): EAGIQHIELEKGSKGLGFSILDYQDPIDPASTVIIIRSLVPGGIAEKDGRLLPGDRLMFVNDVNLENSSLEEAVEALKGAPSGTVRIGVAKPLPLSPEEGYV

T9: TJP3_3, O95049
T9 sequence (O95049 375-456, limits assumed, looked up): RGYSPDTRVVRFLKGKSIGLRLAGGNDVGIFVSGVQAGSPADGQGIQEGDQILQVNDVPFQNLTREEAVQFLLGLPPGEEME

T10: GRIP1_5, Q9Y3R0
T10 sequence (Q9Y3R0 568-668, limits assumed, looked up): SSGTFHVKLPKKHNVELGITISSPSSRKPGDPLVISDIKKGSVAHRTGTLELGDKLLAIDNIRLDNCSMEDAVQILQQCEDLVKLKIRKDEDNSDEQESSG

T11: SNTG1, Q9NSN8
T11 sequence (Q9NSN8 52-150, limits assumed, looked up): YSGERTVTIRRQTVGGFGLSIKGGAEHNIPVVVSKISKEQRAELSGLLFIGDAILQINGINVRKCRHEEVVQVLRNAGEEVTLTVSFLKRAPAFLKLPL

T12: APBA2_1, Q99767
T12 sequence (Q99767 563-664, limits assumed, looked up): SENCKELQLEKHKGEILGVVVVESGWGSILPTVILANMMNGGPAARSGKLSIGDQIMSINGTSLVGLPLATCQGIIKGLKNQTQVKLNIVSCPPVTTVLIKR


molecular target: T1, APBA1_1, Q02410; experiment: holdup assay; parameters: key: below the threshold = too weak to quantify, mostly under pKd 3.1 to 4; details: plain residues with an end cap or a label only (N-terminal biotin on a linker: ado-ado)

Binder	pKd
GDHLDRRVVL [VAC14, Q08AM6]	below the threshold
EYRKDNKVAA [LSM14A, Q8ND56;Q8ND56-2]	below the threshold

molecular target: T2, SNTG2, Q9NY99; experiment: holdup assay; parameters: key: below the threshold = too weak to quantify, mostly under pKd 3.1 to 4; details: plain residues with an end cap or a label only (N-terminal biotin on a linker: ado-ado)

Binder	pKd
GDHLDRRVVL [VAC14, Q08AM6]	below the threshold
EYRKDNKVAA [LSM14A, Q8ND56;Q8ND56-2]	below the threshold

molecular target: AHNAK1, Q09666; experiment: holdup assay; parameters: key: below the threshold = too weak to quantify, mostly under pKd 3.1 to 4; details: plain residues with an end cap or a label only (N-terminal biotin on a linker: ado-ado)
Sequence (Q09666 4-100): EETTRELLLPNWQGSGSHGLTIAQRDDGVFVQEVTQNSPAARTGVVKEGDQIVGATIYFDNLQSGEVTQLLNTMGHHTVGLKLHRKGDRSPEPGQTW

Binder	pKd
GDHLDRRVVL [VAC14, Q08AM6]	below the threshold
EYRKDNKVAA [LSM14A, Q8ND56;Q8ND56-2]	below the threshold

molecular target: T3, GRIP1_2, Q9Y3R0; experiment: holdup assay; parameters: key: below the threshold = too weak to quantify, mostly under pKd 3.1 to 4; details: plain residues with an end cap or a label only (N-terminal biotin on a linker: ado-ado)

Binder	pKd
GDHLDRRVVL [VAC14, Q08AM6]	below the threshold
EYRKDNKVAA [LSM14A, Q8ND56;Q8ND56-2]	below the threshold

molecular target: T4, SNTB1, Q13884; experiment: holdup assay; parameters: key: below the threshold = too weak to quantify, mostly under pKd 3.1 to 4; details: plain residues with an end cap or a label only (N-terminal biotin on a linker: ado-ado)

Binder	pKd
GDHLDRRVVL [VAC14, Q08AM6]	below the threshold
EYRKDNKVAA [LSM14A, Q8ND56;Q8ND56-2]	below the threshold

molecular target: T5, APBA3_1, O96018; experiment: holdup assay; parameters: key: below the threshold = too weak to quantify, mostly under pKd 3.1 to 4; details: plain residues with an end cap or a label only (N-terminal biotin on a linker: ado-ado)

Binder	pKd
GDHLDRRVVL [VAC14, Q08AM6]	below the threshold
EYRKDNKVAA [LSM14A, Q8ND56;Q8ND56-2]	below the threshold

molecular target: T6, SHANK1, Q9Y566; experiment: holdup assay; parameters: key: below the threshold = too weak to quantify, mostly under pKd 3.1 to 4; details: plain residues with an end cap or a label only (N-terminal biotin on a linker: ado-ado)

Binder	pKd
GDHLDRRVVL [VAC14, Q08AM6]	below the threshold

molecular target: MAGI1_1, Q96QZ7; experiment: holdup assay; parameters: key: below the threshold = too weak to quantify, mostly under pKd 3.1 to 4; details: plain residues with an end cap or a label only (N-terminal biotin on a linker: ado-ado)
Sequence (Q96QZ7 1-106): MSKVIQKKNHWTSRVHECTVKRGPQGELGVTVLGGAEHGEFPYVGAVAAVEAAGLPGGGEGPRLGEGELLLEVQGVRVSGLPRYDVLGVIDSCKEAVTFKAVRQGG

Binder	pKd
GDHLDRRVVL [VAC14, Q08AM6]	below the threshold
EYRKDNKVAA [LSM14A, Q8ND56;Q8ND56-2]	below the threshold

molecular target: T7, NHERF3_1, Q5T2W1; experiment: holdup assay; parameters: key: below the threshold = too weak to quantify, mostly under pKd 3.1 to 4; details: plain residues with an end cap or a label only (N-terminal biotin on a linker: ado-ado)

Binder	pKd
GDHLDRRVVL [VAC14, Q08AM6]	below the threshold
EYRKDNKVAA [LSM14A, Q8ND56;Q8ND56-2]	below the threshold

molecular target: GRIP2_6, Q9C0E4; experiment: holdup assay; parameters: key: below the threshold = too weak to quantify, mostly under pKd 3.1 to 4; details: plain residues with an end cap or a label only (N-terminal biotin on a linker: ado-ado)
Sequence (Q9C0E4 648-740): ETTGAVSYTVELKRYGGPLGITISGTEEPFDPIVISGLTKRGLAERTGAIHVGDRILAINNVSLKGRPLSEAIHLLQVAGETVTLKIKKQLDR

Binder	pKd
GDHLDRRVVL [VAC14, Q08AM6]	below the threshold
EYRKDNKVAA [LSM14A, Q8ND56;Q8ND56-2]	below the threshold

molecular target: GOPC, Q9HD26; experiment: holdup assay; parameters: key: below the threshold = too weak to quantify, mostly under pKd 3.1 to 4; details: plain residues with an end cap or a label only (N-terminal biotin on a linker: ado-ado)

Binder	pKd
GDHLDRRVVL [VAC14, Q08AM6]	below the threshold
EYRKDNKVAA [LSM14A, Q8ND56;Q8ND56-2]	below the threshold

molecular target: T8, MPDZ_5, O75970; experiment: holdup assay; parameters: key: below the threshold = too weak to quantify, mostly under pKd 3.1 to 4; details: plain residues with an end cap or a label only (N-terminal biotin on a linker: ado-ado)

Binder	pKd
GDHLDRRVVL [VAC14, Q08AM6]	below the threshold
EYRKDNKVAA [LSM14A, Q8ND56;Q8ND56-2]	below the threshold

molecular target: GRID2IP_2, A4D2P6; experiment: holdup assay; parameters: key: below the threshold = too weak to quantify, mostly under pKd 3.1 to 4; details: plain residues with an end cap or a label only (N-terminal biotin on a linker: ado-ado)
Sequence (A4D2P6 272-370): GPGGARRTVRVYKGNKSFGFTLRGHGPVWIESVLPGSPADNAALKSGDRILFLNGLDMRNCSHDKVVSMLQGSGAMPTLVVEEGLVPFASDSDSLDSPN

Binder	pKd
GDHLDRRVVL [VAC14, Q08AM6]	below the threshold
EYRKDNKVAA [LSM14A, Q8ND56;Q8ND56-2]	below the threshold

molecular target: Inadl_9, Q8NI35; experiment: holdup assay; parameters: key: below the threshold = too weak to quantify, mostly under pKd 3.1 to 4; details: plain residues with an end cap or a label only (N-terminal biotin on a linker: ado-ado)
Sequence (Q8NI35 1530-1615): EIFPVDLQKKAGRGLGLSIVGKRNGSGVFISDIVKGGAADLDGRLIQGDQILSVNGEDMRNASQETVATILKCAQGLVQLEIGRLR

Binder	pKd
GDHLDRRVVL [VAC14, Q08AM6]	below the threshold
EYRKDNKVAA [LSM14A, Q8ND56;Q8ND56-2]	below the threshold

molecular target: GORASP1, Q9BQQ3; experiment: holdup assay; parameters: key: below the threshold = too weak to quantify, mostly under pKd 3.1 to 4; details: plain residues with an end cap or a label only (N-terminal biotin on a linker: ado-ado)
Sequence (Q9BQQ3 1-208): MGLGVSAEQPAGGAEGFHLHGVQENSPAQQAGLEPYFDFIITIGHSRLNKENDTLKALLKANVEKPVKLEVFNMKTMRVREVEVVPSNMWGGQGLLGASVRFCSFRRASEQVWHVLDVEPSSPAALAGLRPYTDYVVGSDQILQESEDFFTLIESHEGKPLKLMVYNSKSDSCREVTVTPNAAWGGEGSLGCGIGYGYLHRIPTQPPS

Binder	pKd
GDHLDRRVVL [VAC14, Q08AM6]	3.77
EYRKDNKVAA [LSM14A, Q8ND56;Q8ND56-2]	below the threshold

molecular target: T9, TJP3_3, O95049; experiment: holdup assay; parameters: key: below the threshold = too weak to quantify, mostly under pKd 3.1 to 4; details: plain residues with an end cap or a label only (N-terminal biotin on a linker: ado-ado)

Binder	pKd
GDHLDRRVVL [VAC14, Q08AM6]	below the threshold
EYRKDNKVAA [LSM14A, Q8ND56;Q8ND56-2]	below the threshold

molecular target: PARD3_3, Q8TEW0; experiment: holdup assay; parameters: key: below the threshold = too weak to quantify, mostly under pKd 3.1 to 4; details: plain residues with an end cap or a label only (N-terminal biotin on a linker: ado-ado)
Sequence (Q8TEW0 582-685): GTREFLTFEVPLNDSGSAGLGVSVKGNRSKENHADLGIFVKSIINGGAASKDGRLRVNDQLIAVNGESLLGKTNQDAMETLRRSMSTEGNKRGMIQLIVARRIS

Binder	pKd
GDHLDRRVVL [VAC14, Q08AM6]	3.48
EYRKDNKVAA [LSM14A, Q8ND56;Q8ND56-2]	below the threshold

molecular target: GRIP2_7, Q9C0E4; experiment: holdup assay; parameters: key: below the threshold = too weak to quantify, mostly under pKd 3.1 to 4; details: plain residues with an end cap or a label only (N-terminal biotin on a linker: ado-ado)
Sequence (Q9C0E4 934-1023): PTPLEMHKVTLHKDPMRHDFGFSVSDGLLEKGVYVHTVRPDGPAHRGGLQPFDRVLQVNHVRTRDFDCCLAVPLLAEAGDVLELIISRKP

Binder	pKd
GDHLDRRVVL [VAC14, Q08AM6]	3.53
EYRKDNKVAA [LSM14A, Q8ND56;Q8ND56-2]	below the threshold

molecular target: DLG1_3, Q12959; experiment: holdup assay; parameters: key: below the threshold = too weak to quantify, mostly under pKd 3.1 to 4; details: plain residues with an end cap or a label only (N-terminal biotin on a linker: ado-ado)
Sequence (Q12959 457-571): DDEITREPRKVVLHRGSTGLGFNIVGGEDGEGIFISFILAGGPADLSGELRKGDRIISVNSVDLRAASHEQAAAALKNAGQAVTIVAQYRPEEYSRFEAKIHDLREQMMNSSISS

Binder	pKd
GDHLDRRVVL [VAC14, Q08AM6]	below the threshold

molecular target: T10, GRIP1_5, Q9Y3R0; experiment: holdup assay; parameters: key: below the threshold = too weak to quantify, mostly under pKd 3.1 to 4; details: plain residues with an end cap or a label only (N-terminal biotin on a linker: ado-ado)

Binder	pKd
GDHLDRRVVL [VAC14, Q08AM6]	below the threshold

molecular target: Inadl_8, Q8NI35; experiment: holdup assay; parameters: key: below the threshold = too weak to quantify, mostly under pKd 3.1 to 4; details: plain residues with an end cap or a label only (N-terminal biotin on a linker: ado-ado)
Sequence (Q8NI35 1425-1530): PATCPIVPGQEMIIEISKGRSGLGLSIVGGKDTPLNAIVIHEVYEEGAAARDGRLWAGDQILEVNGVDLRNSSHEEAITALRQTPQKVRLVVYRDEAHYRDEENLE

Binder	pKd
GDHLDRRVVL [VAC14, Q08AM6]	below the threshold
EYRKDNKVAA [LSM14A, Q8ND56;Q8ND56-2]	below the threshold

molecular target: T11, SNTG1, Q9NSN8; experiment: holdup assay; parameters: key: below the threshold = too weak to quantify, mostly under pKd 3.1 to 4; details: plain residues with an end cap or a label only (N-terminal biotin on a linker: ado-ado)

Binder	pKd
GDHLDRRVVL [VAC14, Q08AM6]	below the threshold
EYRKDNKVAA [LSM14A, Q8ND56;Q8ND56-2]	below the threshold

molecular target: DLG2_3, Q15700; experiment: holdup assay; parameters: key: below the threshold = too weak to quantify, mostly under pKd 3.1 to 4; details: plain residues with an end cap or a label only (N-terminal biotin on a linker: ado-ado)

Binder	pKd
GDHLDRRVVL [VAC14, Q08AM6]	below the threshold

molecular target: T12, APBA2_1, Q99767; experiment: holdup assay; parameters: key: below the threshold = too weak to quantify, mostly under pKd 3.1 to 4; details: plain residues with an end cap or a label only (N-terminal biotin on a linker: ado-ado)

Binder	pKd
GDHLDRRVVL [VAC14, Q08AM6]	below the threshold
EYRKDNKVAA [LSM14A, Q8ND56;Q8ND56-2]	below the threshold

From PMC9482650, “Quantitative fragmentomics allow affinity mapping of interactomes” (Nature Communications, 2022)
